T1: EBOV GP on pseudotyped lentiviral particles (Ebola virus (EBOV), UniProt Q05320 33-676)
T1 sequence: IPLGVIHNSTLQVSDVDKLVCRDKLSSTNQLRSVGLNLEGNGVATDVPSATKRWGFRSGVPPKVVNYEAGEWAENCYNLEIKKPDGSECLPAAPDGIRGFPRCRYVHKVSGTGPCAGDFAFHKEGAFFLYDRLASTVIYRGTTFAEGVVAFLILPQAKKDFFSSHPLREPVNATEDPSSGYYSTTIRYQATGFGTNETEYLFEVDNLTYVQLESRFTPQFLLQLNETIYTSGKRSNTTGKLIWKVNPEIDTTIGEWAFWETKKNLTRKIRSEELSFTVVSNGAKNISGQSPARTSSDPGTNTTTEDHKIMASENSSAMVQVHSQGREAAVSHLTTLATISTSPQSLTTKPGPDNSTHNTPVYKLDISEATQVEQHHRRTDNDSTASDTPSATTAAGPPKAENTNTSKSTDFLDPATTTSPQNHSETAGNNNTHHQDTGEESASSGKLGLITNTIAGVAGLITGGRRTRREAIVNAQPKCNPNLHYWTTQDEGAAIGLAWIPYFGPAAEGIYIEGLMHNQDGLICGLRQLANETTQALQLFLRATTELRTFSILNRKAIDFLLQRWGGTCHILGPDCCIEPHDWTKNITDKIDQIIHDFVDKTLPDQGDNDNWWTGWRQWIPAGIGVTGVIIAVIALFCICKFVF

B1: EboV.YD.02 IgG (antibody, V domains shown)
VH: QVQLVQSGAEVKKPGTSVKISCKASGYSFTSKYMHWVRQAPGQGLEWMGKINPSGGRRDYAQKFQGRVTMTRDTSTSTVYMELSSLRSGDTAVYYCARDMHGVLSWYHALDYWGQGTLVTVSS
VL: DIRVTQSPSSLSTSVGDRVTITCRASQDIGRYLNWYQQKPGKAPKLLIYGASSLQSGVPSRFSGSGSGTDFTLTISSLQPEDFATYYCQQGYRIPITFGQGTRLEIK
B2: EboV.YD.01 IgG (antibody, V domains shown)
VH: QVRLVQSGGGLVKPGGSLRLSCAASGFTFSTFAMHWVRQAPGKGLEWVSSISRSSGSINYADSVKGRFTISRDNAKNSLFLQMNSLRADDTAVYYCARENTIPFGGGVVLERASHFDYWGQGTTVTVSS
VL: DIRVTQSPSSLSASVGDRVTIICRASQSSSTFLNWYQQKPGKAPNLLIYAASSLQSGVPSRFSGSGSGTDFTLTISSLQPEDFATYYCQQSYSAPYTFGQGTKVDIK
B3: EboV.YD.03 IgG (antibody, V domains shown)
VH: QVQLQESGPGLVKPSETLSLTCTVSGDSLSSSYWSWIRQSAGKGLEYIGRTYVSGNTKYNPSLKSRVTMSVDTSKNQFSLRLTSVTAADTAVYYCARIRVLPAAMLRGDYWYFDLWGRGTLVTVSS
VL: SYELTQLPSVSVSPGQTASITCSGDKVENKYVCWYQQKSGQSPVLVIYEDSKRPSGIPERFSGSNSGNTATLTISGTQTMDEADYFCQAWDSSIGVFGTGTKLTVL
B4: EboV.YD.04 IgG (antibody, V domains shown)
VH: QVQLVESGGGLVKPGGSLRLSCAASGFMFSNAWMNWVRQAPGKGLEWVGRIKSRSDGGTTDYAAPVKGRFTFSREDSKNMLYLQMNSLKREDTAVYYCTTRVSIFRGPIEDVWGQGTTVTVSS
VL: QPVLTQPPSVSGAPGQRVTISCAGSSSNIGAGYDVYWYQQLPGTAPKLLIYGNNNRPSGVPDRFSGSKSGTSASLAITGLQAEDEAEYYCQSYDSSLRDSYVFGSGTKVTVL

Assays:
[1] = biological target: T1, EBOV GP on pseudotyped lentiviral …; experiment: cell-based or functional assay
[2] = biological target: T1, EBOV GP on pseudotyped lentiviral …; experiment: cell-based or functional assay; remark: listed apart in the source

Binder	IC50, neutralization activity in a pseudotyped virus entry assay [1]	% EBOV Neut. (10 µg/mL) [2]
B1	1.6 µg/mL	70.8%
B2	7.1 µg/mL	55.1%
B3	1.1 µg/mL	97.3%
B4	0.5 µg/mL	98.8%
